Experiment: soluble on expression in E. coli; label from the status in PepcDB or PDB records

With “MSLILVTGAAGFIGSHLCEQLLMNEKVSVVGVDGHIDSSLCKVKERNVRNLLKHPRFTLLKQDLLTIDLEPLVDQVDVIYHLSGIPGVRSSWGTDFKKYVTHNIVATQQLLEACRRHSLEKFIYISTSSVYGQKNGKVGEKASPTPLSPYGVSKLTGEHLCNVYYRNFSIPTVILRYFTVYGPRQRQDMAFHRFIKAIIDNQPIPIFGDGNQSRDFTYIDDCIAATCAVLHADVIGETINIGGKERATVLQIISMLESIFQKDAKLQFLEKPFGEPMSTWADISKAEKLLRYSPNVPLLQGIEKEVDEGHHHHHH” as the sequence, how does the “soluble on expression in E. coli” value read?
The value was “soluble”.

With “MSLIMKVVVKVGSNLLVGSSGLRKSYIAELCREVARLKSQGHEISIITSGARAAGFTYLGKGKRTQDLHIKQALCAVGQVQLMKVYENAFDFYGIKIAQILLTRDTFSNRKRYLNLRNTLIGLSEFDVVPIVNENDTVATEEITLGDNDTLAAMFSIAWDADFLVLFTTVDGVIDENGKLVERFDESVKLKDMGKSSWGTGGIRSKIESALMASRCGVKATICSGNDVSNLTRFVKGEPVGTVFEPQGRLKAKKAWIAFLSEPAGKIYVNKGAEEALKSGNSLLPVGVTGVEGTFDVGDVVEIVNEEGELVGRGIVNYSSSDLEKIAGHKSSDLKKILGYEGNKVVVHIDNMWVAEGHHHHHH” as the sequence, how does the “soluble on expression in E. coli” value read?
Its value is “soluble”.

With “MSLINVQNVSKTFILHQQNGVRLPVLNRASLTVNAGECVVLHGHSGSGKSTLLRSLYANYLPDEGQIQIKHGDEWVDLVTAPARKVVEIRKTTVGWVSQFLRVIPRISALEVVMQPLLDTGVPREACAAKAARLLTRLNVPERLWHLAPSTFSGGEQQRVNIARGFIVDYPILLLDEPTASLDAKNSAAVVELIREAKTRGAAIVGIFHDEAVRNDVADRLHPMGASEGHHHHHH” as the sequence, how does the “soluble on expression in E. coli” value read?
Its value is “not soluble”.

With “MSLIRMALAAVCALLFSITTMTPFVQASEITISGSTSVARIMDVLAEKYNQQHPETYVAVQGVGSTAGISLLKKGVADIAMTSRYLTESEAQNTLHTFTLAFDGLAIVVNQANPVTNLTREQLYGIYKGQITNWKQVGGNDQKIAVVTREASSGTRYSFESLMGLTKTVKDREVSDVAPTALVVNSNSMMKTLVNHNTQAVGFISIGSVDKSVKAIQFEKADPTSDNIAKHTYQLSRPFLILHYSDNADEQTKEFIAFLKSESAKKLIVEYGYIMPSDVEEGGSHHHHHH” as the sequence, how does the “soluble on expression in E. coli” value read?
The value was “soluble”.

With “MSLITHISPLGSMDMLSQLEVDMLKRTASSDLYQLFRNCSLAVLNSGSLTDNSKELLSRFENFDINVLRRERGVKLELINPPEEAFVDGRIIRALQANLFAVLRDILFVYGQIHNTVRFPNLNLDNSVHITNLVFSILRNARALHVGEAPNMVVCWGGHSINENEYLYARRVGNQLGLRELNICTGCGPGAMEAPMKGAAVGHAQQRYKDSRFIGMTEPSIIAAEPPNPLVNELIIMPDIEKRLEAFVRIAHGIIIFPGGVGTAEELLYLLGILMNPANKDQVLPLILTGPKESADYFRVLDEFVVHTLGENARRHYRIIIDDAAEVARQMKKSMPLVKENRRDTGDAYSFNWSMRIAPDLQMPFEPSHENMANLKLYPDQPVEVLAADLRRAFSGIVAGNVKEVGIRAIEEFGPYKINGDKEIMRRMDDLLQGFVAQHRMKLPGSAYIPCYEICTEGHHHHHH” as the sequence, how does the “soluble on expression in E. coli” value read?
The value was “soluble”.

For “MSLIYFETERLIARDYLTNDYLPFSQMNADEQVMKYFPARLTQNESNAFLDRIQEELKSLGYGLFAIEVKSTGEFIGFTGFHEATFEATFTPCTEIGWRLKHSAWNQGYATEAALGALALAEEINTINEIYSFTAALNKPSENVMKKIHLTKIATFEHPALVNGDPLKPHVLYKKAEGHHHHHH”, which “soluble on expression in E. coli” value is on record?
Its value is “soluble”.

With “MSLKALIIMDMTNDFVFEKYEHEGKEYEGRLVAPLGKTIVEPIEALVKKVVNSGTVSLFRISKDHYDAFTNPELELKVAELGIDEVFMTGLVDEVCIYHNTLGFLERGFRTNVVRGCTAPFDPEKGRESLGELDACGTKMVDDIPSDIGVILLLEDEHDENSEEIKSGSWPPHSMKGTPGALTIKPIREALESREGHHHHHH” as the sequence, how does the “soluble on expression in E. coli” value read?
The value was “soluble”.

With “MSLKAPGALRLLCFSDTHEKHLKIPPHQIVPCDICICAGDFTKFGDPAEVKKFKDWFIKIPARYRVLIAGNHETTFDVERYGRMVTQMRKIKSDLPRETAKSIVQTDGIIYLENESVEIEGLKIYGSPQTHYWEFWAFYYPDKDGPKVWAKIPHDTDILVCHTCPRSTIDLMRGQHVGCKSLANAIKEVQPSLVIYGHLHEGYGVAKIGKSVIANVSLTNLARKLANRPMIFDVSFKTPEIPRPLPKQPEETEIPKDEGHHHHHH” as the sequence, how does the “soluble on expression in E. coli” value read?
The value was “soluble”.

For “MSLKAVYIQKTGGPATIIVGSLPVPKVRPKSVLIKVIAASINYVDLFIRSGIYQTDLPNPYILGRDAIGQVVEIGKDVIQFKVGDCVWTNSMGYDGRQGITSEYALIPEERLFLTPKNADSLKLIGAVHSAATATIVLQDIMELKPKQKLLIEGAAGHVGSKLVYLANEMGAEVVTTASLKDFSRLKQLSDAICFDYRDKSLFKKLKSAYPDGFDHIIDTSGEIPLQFNCDLLAPKGVISLITAPKDSQFDSRQFYMNCQQMKGFVISHASLKQLKKAGRILNDAFRQGQLLEEDMVIKKFDKAAEAHDLMETKKENRKIILVEGHHHHHH”, which “soluble on expression in E. coli” value is on record?
Its value is “not soluble”.

Which “soluble on expression in E. coli” value does the source give for “MSLKDILVIGATGKQGNAVVKQLLEDGWYVSALTRNKNNRKLSDIGHPHLSIVEGDLSDNVSLQSAMKGKYGLYSIQPIVKDDVSEELRQGMKIIEIAEQENIQHIVYSTAGGVNRNRTGPHFEVLAKIENRLMESNINATVIKPSFFMDNFLRIAKVEDERITLPEFINPNIKFTMISSIDIAKIASYIFAHPQSFTHQSIEIGSDEVTLSEAATIFSEVTGKSTVIEGEFVSGVAEKQWLEEKGYEVDFELMAEINPTRLSLSDWLKVQNYNEGHHHHHH” here?
Its value is “soluble”.

With “MSLKEGAWGIIGVPFDSTTSYHPGSRFGPIVVREASYGFEKYNTIFNTQLDNIFYDFGDVNVVFGNCKKTCDIIEDTVNELSDLKIKPLTIGGEHSLTIGVLNSLTKKYDDLTVVHLDAHRDLADTFIGELYSHASVMKRVHEMGVKELVQIGIRSASKEEEDFVKNQSNITTFKNNDVFHHLDNIEYYLSIIDTPIYLSIDMDVFDPSIAPTVGNPTPNGIAYGHIEAMLQTLSLKNVVGMDVVETAGDRLGDITAVSASKIIYDFLSLLEGHHHHHH” as the sequence, how does the “soluble on expression in E. coli” value read?
The value was “not soluble”.

With “MSLKELYLIDALNIIFRNYHVMKNYPLLNTQGENVNAFIGFFKTLFFIIKEKNPEHLIITFDSEVPTFRKQKYPSYKATRDLPPDDLIPQIGWIKEGLLKAKIPIFEMEGYEADDLLASFAKKAAKNNYLTYIISPDKDLLQTMSEYVKILKIENNSFIEMDNEYVTKKFGVNSFQIKDYLAIVGDRSDNIPGIKGIGAKGAANLLREFKTLDGIYSNLEIINKKHRELLIKEKENAFLSYELVSLEENLKIPEIENFALKNFSEEIISLFEKHSAIALIKTYKKDILKQEKENADQKSLFKQEPTTNSLDDINTIDTENVKYRSITTKIELDDLIESLKKAKYISIDTETSSLDTYTAKLIGISISFKEFEGYYIPIEAKGKIYIEKNYIIQKFNNLFESNPKIIGQNYKFDYKILKNNGFNPIPPYFDTMIAAYLIDTNSKVSLDFLAEKYLMHKNIKYEDVIQKNDNFANISLEMATSYSSEDADITFRLFNIFTKKLKEDKLDKLMHEIEMPFNKVIIEMEEGHHHHHH” as the sequence, how does the “soluble on expression in E. coli” value read?
Its value is “not soluble”.

With “MSLKEVDLTQEQMKDLNLTYDWYRSYDNAKLNEFLNFVLLNNSDINIARKTLLSALARADLIDYDLYPTLSGNLGFGADKDLNSGKQSKNFNNSLNLSYELDIYGKLRDSASASEFSAKASAYDLENLKISMINTALNDVFELAYFNDVDKLLRAYLSNLEQMKELYNYKYKLGKIEELDLLNIEQSLLRAKQNLLSNDQNRNLLIKNLQDLLARQEGFAYIEYFKTLSLNDFKTLSPDFNIPLKALAYRADVRSKLNSLKSAFKDYSSMQKSILPSISLGGALSGSDKKIDDSFKFEILSGNVKISLPFLDYGRVKQNIKISQFAYEQLLISYEQVLQSAMNEFALNYKDYQSDTLLLQNLQNINIKQELITKAYYEKYILGKSELKDYLDANNTLNSTQQEFLRARFNLLKTINSYYQITALSFNNENLEFPKEGHHHHHH” as the sequence, how does the “soluble on expression in E. coli” value read?
Its value is “soluble”.

With “MSLKFHSPSCFLSAGEPSGDTLGSDLLRNIKELNPNIHCFGVGGPLMRKEGLEPLIRMEEFQVSGFLEVFCAVFSLYKKYRKLYKAILKENPETVFCIDFPDFHFFLIRKLRKCGYRGKIIHYVCPSIWAWRPNRKKILEKHLDTLLLILPFEKEIFKDSPLKTIYLGHPLVKTIANFQDCNAWKQQLEISDQPSVALFPGSRPGDIFRNLQVQARAFRSSSLAKSHQLLVSSCNPKYDKKILELLDKEGCHNNKIVPSKFRYQLMRDCDCALAKCGTIVLEAALNQTPTIVTCLLRPFDTFLAKYIFKIFIPAYSLPNIITGSVIFPEFIGGKHDFSPEEVAAAIDILANPIGKEKQKYACQQLLKTMTENVITPKECLQAIYAQKNREGHHHHHH” as the sequence, how does the “soluble on expression in E. coli” value read?
Its value is “not soluble”.

With “MSLKIFDAHCDVLLQLWSAQGRKDFKHDSQLHITFEQLKRRKGSIQCFAIYVPETVAYENRFEVALQMVDIFYNEILSLPGVKFIQTKDDINMLKQDEIGAILTLEGCEAIGKDAMKIRLLYRLGVRSFGLTWNYANLLADGALETRGAGLTTSGKHVVQELNALHVWTDVSHLNERSFWDVIEIAKNPIASHSNCMKLCQHPRNLNDEQLKALIKRNGMIGVTFVPQFLTNEKQANVADIIRHIEYICSLGGENNIGFGSDFDGILETVVNVSAYRDYENVVNELCKHYAASTVERFLYDNFVEHISEGHHHHHH” as the sequence, how does the “soluble on expression in E. coli” value read?
The value was “not soluble”.

With “MSLKIHTLRLILGDQLNARHSWFREKDAGVLYVMMELKQETDYVVHHRQKVLAFFAAMRAFGNALNTSGHQVNYIKLDDDTNEQSLTQNLQQLMKKYEVTTLECQQPDEYRLDHQLKSWAGANNIHLSWFDTEHFLTGRNSLKEYFPNSENYLMETFYRRVRKQYDILMDGGRPTGGRWNYDKENQKKVPASHDVELPLIFSNDVSDIDELLRSSEIKTMGQANAAQLIWEGHHHHHH” as the sequence, how does the “soluble on expression in E. coli” value read?
Its value is “not soluble”.

For “MSLKIIPGATGYFNKTLNSNQFDNEDAIKGKVNSIYGKSIDYSTMRHRDIIIAKIDLFIQRITHNLWTAREKNVTLIKQINDLKMCVNEYIGDCTDEELNDREFIASVVDRAIFHFAINSICNPEDNKDATLIERCTFDVETKNGLPSTVQLFYEESKDNEPLANIHLQAIGSGFLTFVNACQEHDDNSLKLFASLLISLSYSSVYSDFAGRVNINEYNDNYLKAQFEELSQRDMKKYLGEMKRLADGGEMNFDGYLDKMSHLVNEGTLAPDILSKMRDAAPKLIDFAKSFDPNSKEKIKIYTGTSKLIYDLFGVKSEKEGHHHHHH”, which “soluble on expression in E. coli” value is on record?
The value was “soluble”.

For “MSLKILIPTAKEMNTDLPSIEAIPLKPESQTVLDALALYSASQLESFYKVSAEKAAEEFQNIQALKRQTAQHYPALKLFDGLMYRNIKRDKLTEAEQDYLENHVFITSALYGVVPALSPMAPHRLDFLMKLKVAGKTLKSHWKAVYDEALKKEEVIFSLLSSEFETVFSKEIRAKMVTFKFMEDRGGQLKIHSTISKKARGAFLTALIENQVQTVGEARRLNFAGFVYREDLSQPQGLVFVKEVEGHHHHHH”, which “soluble on expression in E. coli” value is on record?
Its value is “soluble”.

Which “soluble on expression in E. coli” value does the source give for “MSLKITELSRDLTTGLTTATTSIADYFFGNTHHSHHVFYLNLTVLKAKRAAKVENKKFIDLKLIKLTSGNGGNGCVSFFKDNFKPMGPPDGGDGGNGGSIYLNVVDKNITSLHGLQKRYVAKGGQPGKGSQLDGKSGDDIIIDIPLGTIVRWIPDPQDFKKFVSQREGDALNDVFMEFDIDDRDFIQLNRGGYRPGEGWIFKEHDEEYFRDKDFFQDLNEKVTGYDEELLFEESYNDRFPIVGLDCNQVTQKPLLLLRGGKGGLGNMHFLTKEIKGPRFCKMGRPGITANFLLELKLIADLGLVGLPNAGKSSLLRAISKARPRVGHWEFTTLQPTVGTIFTRIDKDPFTVADIPGIIKGASQNKGMGLDFLRHIERSGGLVFVVSLESANPVDDLKILLEEVGPRRMKDKNVLVVATKADLSSEGANFKVLRDYIEHNHSEWKIVPVCAPKGENVERCIKLMSEIAQTKKKEGHHHHHH” here?
Its value is “soluble”.
